Test results from the DeepSol protein solubility set.

Assay: soluble on expression in E. coli; label from the status in PepcDB or PDB records

Row | Sequence | soluble on expression in E. coli
1 | MLTAQTKNTQTLMPLTERVNVQADSARINQIIDGCWVAVGTNKPHAIQRDFTNLFDGKPSYRFELKTEDNTLEGYAKGETKGRAEFSYCYATSDDFKGLPADVYQKAQITKTVYHHGKGACPQGSSRDYEFSVYIPSSLDSNVSTIFAQWHGMPDRTLVQTPQGEVKKLTVDEFVELEKTTFFKKNAGHEKVVRLDKQGNPMKDKNGKPVYKAGKLNGWLVEQGGYPPLAFGFSGGLFYIKANSDRKWLTDKDDRCNANPGKTPVMKPLTSEYKASTIAYKLPFADFPKDCWITFRVHIDWTVYGKEAETIVKPGMLDVRMDYQEQGKKVSKHIVNNEKILIGRNDEDGYYFKFGIYRVGDSTVPVCYNLAGYSERLE | soluble
2 | MNYPAEPFRIKSVETVSMISRDERVKKMQEAGYNTFLLNSKDIYIDLLTDSGTNAMSDKQWAGMMIGDEAYAGSENFYHLEKTVKELFGFKHIVPTHQGRGAENLLSQLAIKPGQYVAGNMYFTTTRFHQEKNGATFVDIVRDEAHDASLNLPFKGDIDLNKLATLIKEKGAENIAYICLAVTVNLAGGQPVSMANMRAVHEMASTYGIKIFYDATRCVENAYFIKEQEAGYENVSIKDIVHEMFSYADGCTMSGKKDCLVNIGGFLCMNDEEMFSAAKELVVVYEGMPSYGGLAGRDMEAMAIGLREAMQYEYIEHRVKQVRYLGDKLREAGVPIVEPTGGHAVFLDARRFCPHLTQDQFPAQSLAASIYMETGVRSMERGIVSAGRSKETGENHRPKLETVRLTIPRRVYTYAHMDVVADGIIKLYQHKEDIRGLTFVYEPKQLRFFTARFDFI | soluble
3 | MKPYLMGNNPCGADATLFAFAASLLSPVFETPIRAAAESHPNLIAYMARMRTRYYPDFQGSGVFAPALEHHHHHH | not soluble
4 | GSHMRIPATIKKKMALPPATPVFTGEKKVEETKITAAIYDEKSVEFKELEVGELESVVRSALALNKKLWIDVVGVHDESLIAKICEFLGIHPLAAEDILNTAQRVKIEDYDDHLFLVLKILLYNETLEIDQLSLVLKKNLVATFEEREYWILDSIRSRLKSGGRMRKLAGDYLAYTILDAVVDSYFEALLKISDEIEVLEDEVVSGDSTLIGKIHSLKREILAFRNAVWPLRDVLSFFTRVEHELIGEEVKVYYRDVYDHAVRLME | soluble
5 | REIADNTYIVLGTMTLNDFNEYFETDLESDNVDTIAGFYLTGVGTIPSQEEKEHFEVESNGKHLELINDKVKDGRVTKLKILVSE | soluble
6 | MGFHPRVPEGEVARRIAAVGAAIDRVIGERKRKISGQMIGRAVIRERRRCVWLERSEVPLDVIREGEAFVVRFANPDGSLGQPHQLLSSWMPGDPVLEHHHHHH | not soluble
7 | MELTAFRHQVGGHFGILLCNGHVAKPSNLREMAFYKVMNSELKHFSPAFCKEVDVRATVNPSTGQIVVETLEKLDCHKKKSSSKHERSSTGFRQTTDGRVTVDTEKQWNPWAAGCQCKVVERMLKELEPTPFLLLENVVAHYTRPCVLDLKIGTRQHGDDASESKRHRQLMKCRHSTSATLGVRVVGMQLYEAETKSYSYVEKQEGRRIDAAGFRGYVKRFIKCCGRSRAARIRQKLSKLRSLLAEFEGYRFFSASILIAFDAEAADSSSDDAVKVCIIDFAHSTFSGFFEDLAYSGADEGCLLGLDSIVEAMEPIVSKDPVTPSSSFEKKK | not soluble
8 | MGSDKIHHHHHHLNLIWTNLRVPVEEDERQLPLMIARKLKVSQQSISNLRILRRSVDARKKPQLLFSYTLGFSLDIPYKEVNRVLHRVADLKPEPQIMPRPFMKPEKSLKHRPIVVGAGPAGYFAALTLAKGGYAPLVLEQGDDVETRSLKVENFWRTGQLDTESNVQFGEGGAGTFSDGKLTTRIADPRITEVLETFVEQGAPSEILFLAKAHIGTDILKIVTQRLREKIQSLGGEVRFRAKLTGLRHQNGKLVGVEVNHQEVVPAEAVILAIGHSARETYRLLLAQGVHLEQKAFAIGLRIEHPQKLINTSQYGVEFHPKLGPADYQLTYQDTTTGRGAYAFCMCPGGKVVAAASDLERLVTNGMSEYRRDTGIANSALVVTVGKGDFQREHPLAGVEFQEYWEHQAFLAGDRDYKAPAQSVRDFLAKRVTGDFPLPASYTPGIQPVELHRVLPQAVGDVLDRALLSFERKIQGFAGEMGTLTGIETRTSAPVRITRDKMGEALHIQGLFPAGEGAGYAGGIMSAAVDGIRSAEGIMAQYNPAD | not soluble
9 | MGSDKIHHHHHHMSTQTSIEWTEMTWNPIVGCTKVSPGCKHCYAENMAHRLQAMGTPGYENGFKLSLRPEKLREPLQRKKPTIYFVNSMSDLFHEKVPDHYIDQVFEVIREATQHTFQILTKRAERLADYFSKRTPPTNAWLGVSVEDKAYGVPRIDCLRRVNATIRFLSAEPLLEDLGEIDLTDIHWVIVGGESGNKARPMQQEWVDNIHRQCDVSGSAFFFKQWGGWGADGVKRSKKANGRLLNGQTWDEIPLLNLA | not soluble
10 | MDVQLPYNVKIEAFEGPLDLLLHLINRYEIDIYDIPVAQITEQYMAYIHAMQELELDIASEYLVMAATLLAIKSKMLLPPSNEEAVDGDIEWGDDGDPREELTQRLLEYKKFKEAARELKRREEERALLFTKPPSDLSAYADEKKAAPLDVNVYDMLGALSKLLRRKKLQKPMRAKISRQDISVEQRMAEILHELKQANGRKNFYELFPSYDRSYIVVTFLAILELMKQDEIIVEQERNFSDLFLAVKPAG | not soluble
11 | KKSSMRKELETIQLLWHQQKGQYQLSKETIELINHKCHDLKHQVQAIRAVKDEKERETYLEKIEKSVQIYSAIVRTGNEILDTILTEKSLICENSGIHINCVADGSLLAFMNPVDLYTLFGNALDNAIEAVRKLESKEKRVIDIMLYERQSFLMLQIVNPMCGEVKFEDGLPLTTKAKNGYHGYGMKSMLHTIQKYEGHLTTEVKNGCFYFNVMLPLERDSNKK | not soluble
12 | SNAVFGVKEWECEVLSNKNVSTFIKEFVVKLPEGETMNFKSGSYAQIKIPKYNIRYADYDIQDRFRGDWDKMDAWSLTCKNEEETVRAYSMANYPAEGNIITLNVRIATPPFDRAANKWKAGIKPGISSSYIFSLKPGDKVMMSGPYGDFHIQDTDAEMLYIGGGAGMAPLRAQILHLFRTLKTGRKVSYWYGARSKNEIFYEEDFREIEREFPNFKFHIALSDPQPEDNWTGYVGFIHQVIYDNYLKDHDAPEDIEYYMCGPGPMANAVKGMLENLGVPRNMLFFDDFG | soluble
13 | MIRQTPLEKRYDKLGPHIVTALKKRYFDAYYCKTRNEALQQILDLIPQNHVVSWGGSETLKEMGVQTAVREKGFKVIDRDLAKTPEERTEIMRQALLCDTFLMSSNAISEDGQLFNIDGNGNRVAAMIFGPKNVIVVAGMNKIVKNIDDAIQRTRTVASPAVVQRFQDVNTPCYINGSCIDCTSPESICAYMVTTRISRPAKKIKVILVGENLGLLEHHHHHH | soluble
14 | SSRFSITYKHDFYGGVEGEVTGGSALLCCPQEDIKSFLSEPVYSRLCASAWALTIECPSDPRTPSGTPGPLGTVPWRWGSLGMGGPLLPTAPTPRERERRGGQPAQRWSAEEGQEGSADGEAEATQELILAVVQEGAEGQCQGQGRKLLLQRGAHDPVTVHRAFKKEVGLGQVQLIPKGGTGVLHPGAGLKLHTHLQLVTGFVVIRRMHACLAQRYCSQPVVQCVFPS | soluble
15 | MGSDKIHHHHHHMTKILIVLSEWGYWGEELVGPLETFDAAGYQVDFATPNGKRPVALGVSMDPTFVDPPLGRPVTTQDMADKVRQLDDTNNPRLNNPKNLREWLPERPYWSSPKFLREMEEYYRLLDEVRQRDLQTYDAILIVGGSGPMVDLADNQRVHDLILSFYQMGKPVAAECYGVACLAFARDIGDRKSIIWGKHVTGHCLEYDYKDGTGFNGTNIDPCLNNINFGTPFYPLEYILRDATGPDGQYHGNVGRPTSVIVDYPFITGRSTPDSYLTGQKLVEVLEKGLKRYGW | not soluble
16 | MKIPSVFMLEQQKASLQLHVKQLANEAIQKSAPSAWFEVLYAEAQGDTTQIPWAKLTPHPYLQEWLTNHQPFPSGQKALVIGCGLGDDAEALAKLGFAVTAFDISPTAIAWCGQRFPNSNVNYIVADLLAIPPQWHLAFDFVFECRNIQALPLNIRAEVITSIASVVAPDGTLLLINRVRLEHHHHHH | not soluble
17 | ESRLDRILESGVLRVATTGDYKPFSYRTEEGGYAGFDVDMAQRLAESLGAKLVVVPTSWPNLMRDFADDRFDIAMSGISINLERQRQAYFSIPYLRDGKTPITLCSEEARFQTLEQIDQPGVTAIVNPGGTNEKFARANLKKARILVHPDNVTIFQQIVDGKADLMMTDAIEARLQSRLHPELCAVHPQQPFDFAEKAYLLPRDEAFKRYVDQWLHIAEQSGLLRQ | not soluble
